Experiments:
3×MBT domain of L3MBTL1 = assay: Triple SILAC pull-down, 3xMBT/3xMBTD355N ratio (cytoplasmic, nuclear and chromatin fractions of 293T cells); assay type: binding, human; settings: SILAC ratio 3xMBT vs 3xMBTD355N pull-down, 293T cells, all values in log base 2; for 3xMBT/D355N UNC Heavy: experiment with UNC0638 in heavy SILAC media; for 3xMBT/D355N UNC Light: experiment with UNC0638 in light SILAC media;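 on all read-outs here: proteins quantified with MaxQuant, requiring at least two unique peptides and quantification in both label directions, normalized to the mean of proteins from a digested loading control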
G9a and GLP = target: T1, G9a and GLP (Homo sapiens, UniProt Q96KQ7+Q9H9B1); assay: Triple SILAC pull-down after UNC0638 treatment of 293T cells, DMSO/UNC0638 ratio of protein captured by 3×MBT; assay type: cell-based; design: endogenous in cells; host or cells: HEK 293T; settings: all values in log base 2; for Relative to UNC0638 UNC Heavy / Relative to UNC0638 UNC Light: SILAC ratio DMSO relative to UNC0638, pull-down with 3xMBT; for Relative to UNC0638 UNC Heavy: UNC0638 in heavy SILAC media; for Relative to UNC0638 UNC Light: UNC0638 in light SILAC media; for Relative to UNC0638 Average: average of UNC Light and UNC Heavy experiments;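 on all read-outs here: mass spectrometry (Q-Exactive) SILAC quantitation, DMSO/UNC0638 ratio computed after subtracting 3×MBTD355N mutant pull-down background, only proteins with at least twofold 3×MBT over mutant signal considered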
T1 sequence (Q96KQ7 2-1210 limits assumed): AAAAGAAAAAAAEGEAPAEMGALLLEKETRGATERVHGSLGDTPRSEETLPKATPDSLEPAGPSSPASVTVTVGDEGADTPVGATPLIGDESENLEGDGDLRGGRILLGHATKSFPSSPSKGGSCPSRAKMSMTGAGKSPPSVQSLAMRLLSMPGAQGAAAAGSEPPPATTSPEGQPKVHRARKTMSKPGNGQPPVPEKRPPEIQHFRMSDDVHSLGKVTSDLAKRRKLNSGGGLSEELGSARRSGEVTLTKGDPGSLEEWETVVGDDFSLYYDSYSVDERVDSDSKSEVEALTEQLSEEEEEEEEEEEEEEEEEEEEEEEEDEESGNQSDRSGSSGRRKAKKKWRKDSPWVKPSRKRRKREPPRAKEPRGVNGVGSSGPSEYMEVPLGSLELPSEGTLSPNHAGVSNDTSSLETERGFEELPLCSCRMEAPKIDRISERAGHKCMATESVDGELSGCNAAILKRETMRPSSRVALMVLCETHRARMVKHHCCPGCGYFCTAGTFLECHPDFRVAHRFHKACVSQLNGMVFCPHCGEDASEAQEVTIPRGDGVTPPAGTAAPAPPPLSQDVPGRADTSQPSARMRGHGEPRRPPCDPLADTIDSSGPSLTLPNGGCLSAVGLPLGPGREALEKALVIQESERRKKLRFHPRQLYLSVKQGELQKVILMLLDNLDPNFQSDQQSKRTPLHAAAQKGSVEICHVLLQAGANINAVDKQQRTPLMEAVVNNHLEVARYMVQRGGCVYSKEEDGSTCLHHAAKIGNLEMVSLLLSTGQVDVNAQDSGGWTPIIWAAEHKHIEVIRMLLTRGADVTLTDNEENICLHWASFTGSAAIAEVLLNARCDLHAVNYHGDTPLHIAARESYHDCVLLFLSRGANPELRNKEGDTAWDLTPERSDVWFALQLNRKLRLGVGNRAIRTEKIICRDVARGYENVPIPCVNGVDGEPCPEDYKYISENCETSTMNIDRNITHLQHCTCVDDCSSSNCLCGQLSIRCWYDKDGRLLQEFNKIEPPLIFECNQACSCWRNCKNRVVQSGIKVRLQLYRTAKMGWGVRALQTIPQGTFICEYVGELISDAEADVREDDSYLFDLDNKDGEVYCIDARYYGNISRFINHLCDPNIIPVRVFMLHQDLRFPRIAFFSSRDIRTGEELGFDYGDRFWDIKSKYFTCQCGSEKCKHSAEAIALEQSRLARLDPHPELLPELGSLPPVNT
T1 sequence (Q9H9B1 2-1298 limits assumed): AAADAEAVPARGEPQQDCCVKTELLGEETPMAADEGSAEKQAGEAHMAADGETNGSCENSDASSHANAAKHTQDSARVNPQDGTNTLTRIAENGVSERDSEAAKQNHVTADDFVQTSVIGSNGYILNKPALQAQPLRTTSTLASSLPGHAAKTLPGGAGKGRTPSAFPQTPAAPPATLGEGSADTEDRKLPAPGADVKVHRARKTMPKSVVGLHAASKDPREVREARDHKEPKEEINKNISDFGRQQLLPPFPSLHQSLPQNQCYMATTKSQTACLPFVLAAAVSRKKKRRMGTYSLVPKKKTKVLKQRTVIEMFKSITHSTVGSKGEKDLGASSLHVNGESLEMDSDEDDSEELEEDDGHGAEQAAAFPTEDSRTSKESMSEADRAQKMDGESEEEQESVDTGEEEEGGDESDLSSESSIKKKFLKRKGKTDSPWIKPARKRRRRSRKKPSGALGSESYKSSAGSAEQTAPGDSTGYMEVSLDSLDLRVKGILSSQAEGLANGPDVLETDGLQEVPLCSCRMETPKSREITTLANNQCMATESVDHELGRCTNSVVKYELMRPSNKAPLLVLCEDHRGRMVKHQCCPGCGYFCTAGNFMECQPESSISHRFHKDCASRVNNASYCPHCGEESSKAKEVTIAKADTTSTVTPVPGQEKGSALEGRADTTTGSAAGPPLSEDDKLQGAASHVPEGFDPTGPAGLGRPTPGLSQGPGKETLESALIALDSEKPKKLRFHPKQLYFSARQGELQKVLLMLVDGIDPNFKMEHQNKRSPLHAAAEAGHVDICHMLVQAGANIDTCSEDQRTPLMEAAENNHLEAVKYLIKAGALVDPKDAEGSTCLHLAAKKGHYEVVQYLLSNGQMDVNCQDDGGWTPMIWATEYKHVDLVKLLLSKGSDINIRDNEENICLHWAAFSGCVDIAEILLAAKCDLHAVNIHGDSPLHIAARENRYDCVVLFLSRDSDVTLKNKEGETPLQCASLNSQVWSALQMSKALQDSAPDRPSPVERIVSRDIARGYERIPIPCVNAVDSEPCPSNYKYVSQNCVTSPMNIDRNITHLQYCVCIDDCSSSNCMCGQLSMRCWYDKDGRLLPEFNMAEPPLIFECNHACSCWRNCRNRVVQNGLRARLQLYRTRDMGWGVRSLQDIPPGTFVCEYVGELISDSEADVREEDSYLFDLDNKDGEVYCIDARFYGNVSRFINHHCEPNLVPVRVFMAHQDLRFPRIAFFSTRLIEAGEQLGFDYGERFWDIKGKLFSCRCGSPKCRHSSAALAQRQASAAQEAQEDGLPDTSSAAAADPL

B1: STRBP (protein, UniProt Q96SI9 1-672, looked up)
Spermatid perinuclear …: MRSIRSFANDDRHVMVKHSTIYPSPEELEAVQNMVSTVECALKHVSDWLDETNKGTKTEGETEVKKDEAGENYSKDQGGRTLCGVMRIGLVAKGLLIKDDMDLELVLMCKDKPTETLLNTVKDNLPIQIQKLTEEKYQVEQCVNEASIIIRNTKEPTLTLKVILTSPLIRDELEKKDGENVSMKDPPDLLDRQKCLNALASLRHAKWFQARANGLKSCVIVLRILRDLCNRVPTWAPLKGWPLELICEKSIGTCNRPLGAGEALRRVMECLASGILLPGGPGLHDPCERDPTDALSYMTIQQKEDITHSAQHALRLSAFGQIYKVLEMDPLPSSKPFQKYSWSVTDKEGAGSSALKRPFEDGLGDDKDPNKKMKRNLRKILDSKAIDLMNALMRLNQIRPGLQYKLLSQSGPVHAPVFTMSVDVDGTTYEASGPSKKTAKLHVAVKVLQAMGYPTGFDADIECMSSDEKSDNESKNETVSSNSSNNTGNSTTETSSTLEVRTQGPILTASGKNPVMELNEKRRGLKYELISETGGSHDKRFVMEVEVDGQKFRGAGPNKKVAKASAALAALEKLFSGPNAANNKKKKIIPQAKGVVNTAVSAAVQAVRGRGRGTLTRGAFVGATAAPGYIAPGYGTPYGYSTAAPAYGLPKRMVLLPVMKFPTYPVPHYSFF
3xMBT/D355N UNC Heavy (3×MBT domain of L3MBTL1): 2.70 log base 2 | 3xMBT/D355N UNC Light (3×MBT domain of L3MBTL1): 3.07 log base 2 | Relative to UNC0638 UNC Heavy (G9a and GLP): 0.21 log base 2 | Relative to UNC0638 UNC Light (G9a and GLP): −0.06 log base 2 | Relative to UNC0638 Average (G9a and GLP): 0.07 log base 2

B2: DNAJC9 (protein, UniProt Q8WXX5 1-260, looked up)
DnaJ homolog subfamily C …: MGLLDLCEEVFGTADLYRVLGVRREASDGEVRRGYHKVSLQVHPDRVGEGDKEDATRRFQILGKVYSVLSDREQRAVYDEQGTVDEDSPVLTQDRDWEAYWRLLFKKISLEDIQAFEKTYKGSEEELADIKQAYLDFKGDMDQIMESVLCVQYTEEPRIRNIIQQAIDAGEVPSYNAFVKESKQKMNARKRRAQEEAKEAEMSRKELGLDEGVDSLKAAIQSRQKDRQKEMDNFLAQMEAKYCKSSKGGGKKSALKKEKK
3xMBT/D355N UNC Heavy (3×MBT domain of L3MBTL1): 2.56 log base 2 | 3xMBT/D355N UNC Light (3×MBT domain of L3MBTL1): 1.85 log base 2 | Relative to UNC0638 UNC Heavy (G9a and GLP): 0.09 log base 2 | Relative to UNC0638 UNC Light (G9a and GLP): −0.02 log base 2 | Relative to UNC0638 Average (G9a and GLP): 0.04 log base 2

B3: RAD21 (protein, UniProt O60216 1-631, looked up)
Double-strand-break repair …: MFYAHFVLSKRGPLAKIWLAAHWDKKLTKAHVFECNLESSVESIISPKVKMALRTSGHLLLGVVRIYHRKAKYLLADCNEAFIKIKMAFRPGVVDLPEENREAAYNAITLPEEFHDFDQPLPDLDDIDVAQQFSLNQSRVEEITMREEVGNISILQENDFGDFGMDDREIMREGSAFEDDDMLVSTTTSNLLLESEQSTSNLNEKINHLEYEDQYKDDNFGEGNDGGILDDKLISNNDGGIFDDPPALSEAGVMLPEQPAHDDMDEDDNVSMGGPDSPDSVDPVEPMPTMTDQTTLVPNEEEAFALEPIDITVKETKAKRKRKLIVDSVKELDSKTIRAQLSDYSDIVTTLDLAPPTKKLMMWKETGGVEKLFSLPAQPLWNNRLLKLFTRCLTPLVPEDLRKRRKGGEADNLDEFLKEFENPEVPREDQQQQHQQRDVIDEPIIEEPSRLQESVMEASRTNIDESAMPPPPPQGVKRKAGQIDPEPVMPPQQVEQMEIPPVELPPEEPPNICQLIPELELLPEKEKEKEKEKEDDEEEEDEDASGGDQDQEERRWNKRTQQMLHGLQRALAKTGAESISLLELCRNTNRKQAAAKFYSFLVLKKQQAIELTQEEPYSDIIATPGPRFHII
3xMBT/D355N UNC Heavy (3×MBT domain of L3MBTL1): 2.15 log base 2 | 3xMBT/D355N UNC Light (3×MBT domain of L3MBTL1): 1.49 log base 2 | Relative to UNC0638 UNC Heavy (G9a and GLP): 0.07 log base 2 | Relative to UNC0638 UNC Light (G9a and GLP): 0.08 log base 2 | Relative to UNC0638 Average (G9a and GLP): 0.07 log base 2

B4: PUF60 (protein, UniProt Q9UHX1 1-559, looked up)
Poly(U)-binding-splicing …: MATATIALQVNGQQGGGSEPAAAAAVVAAGDKWKPPQGTDSIKMENGQSTAAKLGLPPLTPEQQEALQKAKKYAMEQSIKSVLVKQTIAHQQQQLTNLQMAAVTMGFGDPLSPLQSMAAQRQRALAIMCRVYVGSIYYELGEDTIRQAFAPFGPIKSIDMSWDSVTMKHKGFAFVEYEVPEAAQLALEQMNSVMLGGRNIKVGRPSNIGQAQPIIDQLAEEARAFNRIYVASVHQDLSDDDIKSVFEAFGKIKSCTLARDPTTGKHKGYGFIEYEKAQSSQDAVSSMNLFDLGGQYLRVGKAVTPPMPLLTPATPGGLPPAAAVAAAAATAKITAQEAVAGAAVLGTLGTPGLVSPALTLAQPLGTLPQAVMAAQAPGVITGVTPARPPIPVTIPSVGVVNPILASPPTLGLLEPKKEKEEEELFPESERPEMLSEQEHMSISGSSARHMVMQKLLRKQESTVMVLRNMVDPKDIDDDLEGEVTEECGKFGAVNRVIIYQEKQGEEEDAEIIVKIFVEFSIASETHKAIQALNGRWFAGRKVVAEVYDQERFDNSDLSA
3xMBT/D355N UNC Heavy (3×MBT domain of L3MBTL1): 1.71 log base 2 | 3xMBT/D355N UNC Light (3×MBT domain of L3MBTL1): 2.61 log base 2 | Relative to UNC0638 UNC Heavy (G9a and GLP): 0.03 log base 2 | Relative to UNC0638 UNC Light (G9a and GLP): 0.07 log base 2 | Relative to UNC0638 Average (G9a and GLP): 0.05 log base 2

From patent publication US20140274782A1, “AFFINITY REAGENTS AND METHODS FOR DETECTION, PURIFICATION, AND PROTEOMIC ANALYSIS OF METHYLATED PROTEINS” (The Board of Trustees of the Leland Stanford Junior …, priority 2013, published 2014)
